Measurements published in patent publication US6544767 (AXYS PHARMACEUTICALS, dated 2003).

Molecular target: T1, mature recombinant human cathepsin O2 (human, UniProt P43235 115-329)
T1 construct: also called parent enzyme; mature enzyme
T1 sequence: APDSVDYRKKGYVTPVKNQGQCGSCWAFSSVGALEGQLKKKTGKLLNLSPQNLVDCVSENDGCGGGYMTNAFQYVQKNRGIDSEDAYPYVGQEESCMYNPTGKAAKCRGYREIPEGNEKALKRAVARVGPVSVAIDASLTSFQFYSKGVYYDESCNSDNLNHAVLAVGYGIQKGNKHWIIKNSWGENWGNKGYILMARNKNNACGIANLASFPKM
Assay: inhibition of enzyme activity; assay not detailed in Example 3

Ki: 0.1 nM
B1: propart of human cathepsin O2 (expressed separately in the pTrcHis vector, six-histidine metal binding domain) (other)
chain: LYPEEILDTHWELWKKTHRKQYNNKVDEISRRLIWEKNLKYISIHNLEASLGVHTYELAMNHLGDMTSEEVVQKMTGLKVPLSHSRSNDTLYIPEWEGR
notes: Tag removal is not mentioned; also called proregion; not shown: vector-encoded leader of pTrcHis with a series of six histidine residues
